Data reported in patent publication US20240209076A1 (KODIAK SCIENCES, published 2024).
Each block holds one binder with its values, some of them ahead of it.

Legend:
recombinant human IL-6 [1] = target: T1, recombinant human IL-6 (human, UniProt P05231 30-212); assay: IL-6/IL-6R competitive ELISA as in example 3
Description: The plate was blocked in 2% bovine serum albumin (BSA) in PBS-Tween (PBST) for 2 hours. […] This mixture was then added to the ELISA plate following a wash step.

VEGF = VEGF (UniProt P15692-4 27-191, limits assumed); assay: cell-based or functional assay
[2] = target: T2, biotinylated VEGF (R&D Systems) (UniProt P15692-4 27-191, limits assumed, biotinylated); assay: VEGF/VEGFR competitive ELISA as in example 3
T2 construct: also called btVEGF; bt-VEGF
Description: The plate was blocked in 2% bovine serum albumin (BSA) in PBS-Tween (PBST) for 2 hours.
This assay was performed as described in example 3.

recombinant human IL-6 [3] = target: T1, recombinant human IL-6; assay: SPR, antibody captured on Protein A, IL-6 as analyte
Description: Antibodies were captured on a Protein A chip (GE) by injecting 1:20 dilution of cell supernatant at 10 μL/min for 60 seconds. […] The sensor chip was regenerated by a 60 seconds injection of 10 mM Glycine pH 1.7 at flow rate of 50 μL/min. […] For this setup, 1 μg/mL of purified antibody was injected over a Protein A chip at 10 μL/min for 25-28 seconds. Data analysis for supernatant and purified samples were performed using BIAevaluation software (GE). All sensorgrams were double reference subtracted and fit using a 1:1 Langmuir binding model.

T1 sequence (P05231 30-212 limits assumed): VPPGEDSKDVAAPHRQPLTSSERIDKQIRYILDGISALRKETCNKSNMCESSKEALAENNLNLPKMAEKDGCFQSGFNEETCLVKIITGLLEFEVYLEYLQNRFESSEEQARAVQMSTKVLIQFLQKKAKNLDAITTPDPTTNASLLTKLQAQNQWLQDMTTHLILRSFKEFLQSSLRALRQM
Chain of VEGF (P15692 other isoform, or with tags, fused parts or gaps limits assumed): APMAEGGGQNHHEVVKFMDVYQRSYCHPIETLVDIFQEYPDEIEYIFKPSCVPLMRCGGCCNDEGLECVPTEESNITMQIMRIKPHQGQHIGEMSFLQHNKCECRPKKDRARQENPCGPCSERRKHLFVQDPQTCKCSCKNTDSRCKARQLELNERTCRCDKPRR
T2 sequence (P15692 other isoform, or with tags, fused parts or gaps limits assumed): as above

IC50 (recombinant human IL-6 [1]): 0.23 nM
cell based VEGF stimulated VEGFR reporter assay, average IC50 (VEGF): 0.35 nM
IC50 [2]: 0.99 nM
B1: VEGFR-AntiIL6-OG1802 (other)
heavy: SDTGRPFVEMYSEIPEIIHMTEGRELVIPCRVTSPNITVTLKKFPLDTLIPDGKRIIWDSRKGFIISNATYKEIGLLTCEATVNGHLYKTNYLTHRQTNTIIDVVLSPSHGIELSVGEKLVLNCTARTELNVGIDFNWEYPSSKHQHKKLVNRDLKTQSGSEMKKFLSTLTIDGVTRSDQGLYTCAASSGLMTKKNSTFVRVHEKGGGGSGGGGSEVQLVESGGGLVQPGGSLRLSCAASGFTFSPFAMHWVRQAPGKGLEWVAKISPGGSWTYYSDTVTDRFTFSLDTSKSTAYLQMNSLRAEDTAVYYCARQAWGYYALDIWGQGTLVTVSSASTKGPSVFPLAPSSKSTSGGTAALGCLVKDYFPEPVTVSWNSGALTSGVHTFPAVLQSSGLYSLSSVVTVPSSSLGTQTYICNVNHKPSNTKVDKKVEPKSCDKTHTCPPCPAPEAAGAPSVFLFPPKPKDTLMISRTPEVTCVVVDVSHEDPEVKFNWYVDGVEVHNAKTKPREEQYNSTYRVVSVLTVLHQDWLNGKEYKCKVSNKALPAPIEKTISKAKGQPREPQVYTLPPSREEMTKNQVSLTCLVKGFYPSDIAVEWESNGQPENNYKTTPPVLDSDGSFFLYSKLTVDKSRWQQGNVFSCSVMHEALHNHYTQKSLSCSPGK
light: DIQLTQSPSSLSASVGDRVTITCSASISVSYLYWYQQKPGKAPKLLIYDDSSLASGVPSRFSGSGSGTDFTLTISSLQPEDFATYYCQQWSGYPYTFGQGTKVEIKRTVAAPSVFIFPPSDEQLKSGTASVVCLLNNFYPREAKVQWKVDNALQSGNSQESVTEQDSKDSTYSLSSTLTLSKADYEKHKVYACEVTHQGLSSPVTKSFNRGEC
modifications: OG1802 phosphorylcholine polymer (about 794 kDa) on Cys L443C (EU numbering; 660C in SEQ ID NO: 170) by maleimide-cysteine chemistry, one polymer per molecule
notes: also called bioconjugate

IC50 (recombinant human IL-6 [1]): 0.26 nM
cell based VEGF stimulated VEGFR reporter assay, average IC50 (VEGF): 0.51 nM
IC50 [2]: 1.98 nM
B2: VEGFR-AntiIL6 (FIG. 27) (other)
heavy: B1 heavy
light: B1 light

fold decrease in KD relative to wild-type (recombinant human IL-6 [3]): ~2 fold
B3: anti-IL-6 antibody, heavy chain G66D, light chain wild-type (antibody, human IgG1, V domains shown)
VH: EVQLVESGGGLVQPGGSLRLSCAASGFTFSPFAMSWVRQAPGKGLEWVAKISPGGSWTYYSDTVTDRFTFSLDTSKSTAYLQMNSLRAEDTAVYYCARQLWGYYALDIWGQGTLVTVSS
VL: DIQLTQSPSSLSASVGDRVTITCSASISVSYMYWYQQKPGKAPKLLIYDMSNLASGVPSRFSGSGSGTDFTLTISSLQPEDFATYYCMQWSGYPYTFGQGTKVEIK
notes: see m23; engineered human IgG1
